Measurements from publication doi:10.1101/808618 (bioRxiv, 2020).
Changes are numbered by the printed parent chain. In names and notes the source's numbering stands.

B1: PfGMPS_E555L (enzyme, Plasmodium falciparum)
chain: MEGEEYDKILVLNFGSQYFHLIVKRLNNIKIFSETKDYGVELKDIKDMNIKGVILSGGPYSVTEAGSPHLKKEVFEYFLEKKIPIFGICYGMQEIAVQMNGEVKKSKTSEYGCTDVNILRNDNINNITYCRNFGDSSSAMDLYSNYKLMNETCCLFENIKSDITTVWMNHNDEVTKIPENFYLVSSSENCLICSIYNKEYNIYGVQYHPEVYESLDGELMFYNFAYNICKCKKQFDPIRYHELELKNIEKYKHDHYVIAAMSGGIDSTVAAAYTHKIFKERFFGIFIDNGLLRKNEAENVYTFLKSTFPDMNITKIDASENFLSNLQGVTDPEQKRKIIGKLFIEEFEKAVNNIDIDINKTFLLQGTLYPDIIESKCSKNLSDTIKTHHNVGGLPKNLKFKLFEPFKYLFKDDVKTLSRELNLPEEITNRHPFPGPGLAIRVIGEINKHKLNILREVDDIFINDLKQYGLYNQISQAFAVLLSSKSVGVRGDARSYDYVCVLRAVKTSSFMTANWYQIPYDILDKITTRILSEVKGVNRILYDVSSKPPATIEFL
B2: PfGMPS_K386L (enzyme, Plasmodium falciparum)
chain: B1 chain with K386L, L555E
B3: PfGMPS R25L (enzyme, Plasmodium falciparum)
chain: B1 chain with R25L, L555E
B4: PfGMPS_K24L (enzyme, Plasmodium falciparum)
chain: B1 chain with K24L, L555E
B5: PfGMPS_H388A (enzyme, Plasmodium falciparum)
chain: B1 chain with H388A, L555E
B6: PfGMPS_E213A (enzyme, Plasmodium falciparum)
chain: B1 chain with E213A, L555E
B7: PfGMPS K376L (enzyme, Plasmodium falciparum)
chain: B1 chain with K376L, L555E
B8: PfGMPS K160L (enzyme, Plasmodium falciparum)
chain: B1 chain with K160L, L555E
B9: PfGMPS_T387A (enzyme, Plasmodium falciparum)
chain: B1 chain with T387A, L555E

Molecular target: the molecule itself
Experiment: SEC

Protein	binding result
B1	binds
B2	binds
B3	binds
B4	binds
B5	binds
B6	binds
B7	binds
B8	binds
B9	binds
